Data published in PMC5464678 (The Journal of Physical Chemistry Letters, 2017).

Biological target: T1, Cnu (UniProt P64467 1-71)
T1 sequence (looked up): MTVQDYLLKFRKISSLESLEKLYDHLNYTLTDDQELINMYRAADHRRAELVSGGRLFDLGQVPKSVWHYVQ
Experiment: fluorescence polarisation; tryptophan fluorescence anisotropy of Cnu, titrated with H-NS(1-59) at select temperatures (278 to 310 K); apparent dissociation constants from fits assuming a 1:1 binding equilibrium
Conditions: both partners purified

fold decrease of binding affinity, 310 K against 278 K: ~5 fold
B1: H-NS_(1–59) (domain or fragment, UniProt P0ACF8 1-59, looked up)
chain: MSEALKILNNIRTLRAQARECTLETLEEMLEKLEVVVNERREEESAAAAEVEERTRKLQ
